Results: PMC8463545
pKd: −log10 of the molar value.

Legend:
Test in all cases: SPR
Settings in all cases: EMSA: 10 mM Tris-HCl pH 7.5, 50 mM KCl, 1 mM DTT, 0.4% glycerol, 20 uL, 28 C, 25-30 min; 5% native gel, 0.5x TBE, 4 C; SPR conditions not given
[1] = system: HtsH2C-HA-His (Lysobacter enzymogenes OH11)
[2] = system: HtsH1C-Flag-His (Lysobacter enzymogenes OH11)
[3] = system: HtsH3C-Myc-His (Lysobacter enzymogenes OH11)

plafB (SPR)
pKd [1]: 5.86
pKd [2]: 6.27
pKd [3]: 6.60
